The record followed here is patent US8173131B2, “Compositions and methods for modulating RSV infection and immunity” (PerkinElmer Health Sciences, Inc., priority 2000, dated 2012).

The experiment deals with murine spleen leukocyte cell migration. The experiment in a line: Murine leukocyte chemotaxis in modified Boyden chamber. In kind it is cell-based, mouse. Here is the method:
The chemotactic index was determined from the fold increase of murine spleen leukocyte cell migration toward the chemoattractant (e.g., Fkn or G glycoprotein) over the leukocyte migration toward media alone control, using modified Boyden chambers. Fkn, G glycoprotein, recombinant polyhistidine-tagged G glycoprotein (GHIS), anti-CX3CR1 monoclonal antibody (2A9-1), normal rabbit serum, rabbit anti-CX3CR1 serum, anti-G glycoprotein monoclonal antibody (131-2G) or anti-F glycoprotein monoclonal antibody (131-2A) were added to the upper chamber to examine antagonism of cell migration toward the chemoattractant in the lower chamber.
Leukocyte chemotaxis toward Fkn, G glycoprotein or media was measured according to Boyden^46 using 24 well plates (Costar, Cambridge, Mass.) with 3 μm filter inserts (Nalge Nunc, Rochester, N.Y.) coated with an extracellular matrix consisting primarily of laminin, collagen IV and proteoglycan (ECM, Sigma, St. Louis, Mo.). For murine studies, 5×10^5 naïve spleen cells was placed in the upper chamber and 10 nM mouse Fkn or 10 nM G glycoprotein, anti-CX3CR1 antibody, anti-G or anti-F glycoprotein monoclonal antibody, normal rabbit sera, rabbit anti-CCR5 sera or media was placed in the upper or lower chamber as appropriate. For human studies, 10^6 density gradient purified (Lymphocyte Separation Media, ICN Biomedicals, Aurora, Ohio, per manufacture instructions) peripheral blood mononuclear cells (PBMC) from normal human adult donors was placed in the upper chamber in the presence or absence of 1 μM peptide RT33, and 10 nM human Fkn, 10 nM G glycoprotein or 1 μM peptide RT33 placed in the lower chambers. The modified Boyden chamber was incubated at 37° C. for 4-6 h, the inserts removed, washed in PBS (GIBCO BRL), fixed in 3% gluteraldehyde and stained in formalin-buffered 0.01% crystal violet. Chemotactic cells were visualized with a microscope. Chemotactic cells were analyzed for CX3CR1 expression by collecting cells from the upper or lower modified Boyden chambers, antibody staining (2A9-1) and flow cytometry as described. Leucocytes chemotactic toward G or Fkn expressed a higher percent of CX3CR1 in the lower (25-30%) versus upper chamber (7-11%).

B1: G glycoprotein: purified G glycoprotein isolated from RSV/A2-infected Vero cells (protein)
chain: MSKNKDQRTAKTLERTWDTLNHLLFISSCLYKLNLKSVAQITLSILAMIISTSLIIAAIIFIASANHKVTPTTAIIQDATSQIKNTTPTYLTQNPQLGISPSNPSEITSQITTILASTTPGVKSTLQSTTVKTKNTTTTQTQPSKPTTKQRQNKPPSKPNNDFHFEVFNFVPCSICSNNPTCWAICKRIPNKKPGKKTTTKPTKKPTLKTTKKDPKPQTTKSKEVPTTKPTEEPTINTTKTNIITTLLTSNTTGNPELTSQMETFHSTSSEGNPSPSQVSTTSEYPSQPSSPPNTPRQ
With B1, under “substance added to upper chamber as antagonist”, the “chemotactic index toward Fkn” value is 3.2. For the setting “substance in upper chamber”, the “inhibition of leukocyte chemotaxis toward Fkn” value is given as “approximately 37%”.
